T1: FcγRIIa R (human, UniProt P12318 34-217)
T1 construct: extracellular domain; also called FcgRIIa R type; 2aR
T1 sequence (looked up): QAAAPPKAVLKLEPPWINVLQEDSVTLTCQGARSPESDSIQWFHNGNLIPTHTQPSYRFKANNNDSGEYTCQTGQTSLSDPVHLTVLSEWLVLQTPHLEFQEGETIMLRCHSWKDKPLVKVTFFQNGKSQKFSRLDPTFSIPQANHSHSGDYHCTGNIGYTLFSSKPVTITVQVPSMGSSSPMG


The binders below were run against T1, FcγRIIa R (assay: SPR Biacore; vs GpH7-B3/GpL16-k0 =100).

Ho/Con_2aR	Binder
96.4 % of control	GpH7-B3 variant I336_06M/GpL16-k0 (antibody, human IgG1, kappa, also called Ho Ab I336_06M) heavy: not shown light: DIVMTQSPLSLPVTPGEPASISCQASESLVHSNRNTYLHWYLQKPGQSPQLLIYKVSNRFSGVPDRFSGSGSGTDFTLKISRVEAEDVGVYYCSQNTHVPPTFGQGTKVEIERTVAAPSVFIFPPSDEQLKSGTASVVCLLNNFYPREAKVQWKVDNALQSGNSQESVTEQDSKDSTYSLSSTLTLSKADYEKHKVYACEVTHQGLSSPVTKSFNRGEC
105 % of control	GpH7-B3 variant I336_08L/GpL16-k0 (antibody, human IgG1, kappa, also called Ho Ab I336_08L) heavy: not shown light: DIVMTQSPLSLPVTPGEPASISCQASESLVHSNRNTYLHWYLQKPGQSPQLLIYKVSNRFSGVPDRFSGSGSGTDFTLKISRVEAEDVGVYYCSQNTHVPPTFGQGTKVEIERTVAAPSVFIFPPSDEQLKSGTASVVCLLNNFYPREAKVQWKVDNALQSGNSQESVTEQDSKDSTYSLSSTLTLSKADYEKHKVYACEVTHQGLSSPVTKSFNRGEC
94.5 % of control	GpH7-B3 variant I336_18N/GpL16-k0 (antibody, human IgG1, kappa, also called Ho Ab I336_18N) heavy: not shown light: DIVMTQSPLSLPVTPGEPASISCQASESLVHSNRNTYLHWYLQKPGQSPQLLIYKVSNRFSGVPDRFSGSGSGTDFTLKISRVEAEDVGVYYCSQNTHVPPTFGQGTKVEIERTVAAPSVFIFPPSDEQLKSGTASVVCLLNNFYPREAKVQWKVDNALQSGNSQESVTEQDSKDSTYSLSSTLTLSKADYEKHKVYACEVTHQGLSSPVTKSFNRGEC
139 % of control	GpH7-B3 variant K326_03V/GpL16-k0 (antibody, human IgG1, kappa, also called Ho Ab K326_03V) heavy: not shown light: DIVMTQSPLSLPVTPGEPASISCQASESLVHSNRNTYLHWYLQKPGQSPQLLIYKVSNRFSGVPDRFSGSGSGTDFTLKISRVEAEDVGVYYCSQNTHVPPTFGQGTKVEIERTVAAPSVFIFPPSDEQLKSGTASVVCLLNNFYPREAKVQWKVDNALQSGNSQESVTEQDSKDSTYSLSSTLTLSKADYEKHKVYACEVTHQGLSSPVTKSFNRGEC
133 % of control	GpH7-B3 variant K326_07I/GpL16-k0 (antibody, human IgG1, kappa, also called Ho Ab K326_07I) heavy: not shown light: DIVMTQSPLSLPVTPGEPASISCQASESLVHSNRNTYLHWYLQKPGQSPQLLIYKVSNRFSGVPDRFSGSGSGTDFTLKISRVEAEDVGVYYCSQNTHVPPTFGQGTKVEIERTVAAPSVFIFPPSDEQLKSGTASVVCLLNNFYPREAKVQWKVDNALQSGNSQESVTEQDSKDSTYSLSSTLTLSKADYEKHKVYACEVTHQGLSSPVTKSFNRGEC
95.7 % of control	GpH7-B3 variant K326_12R/GpL16-k0 (antibody, human IgG1, kappa, also called Ho Ab K326_12R) heavy: not shown light: DIVMTQSPLSLPVTPGEPASISCQASESLVHSNRNTYLHWYLQKPGQSPQLLIYKVSNRFSGVPDRFSGSGSGTDFTLKISRVEAEDVGVYYCSQNTHVPPTFGQGTKVEIERTVAAPSVFIFPPSDEQLKSGTASVVCLLNNFYPREAKVQWKVDNALQSGNSQESVTEQDSKDSTYSLSSTLTLSKADYEKHKVYACEVTHQGLSSPVTKSFNRGEC
134 % of control	GpH7-B3 variant K326_15Y/GpL16-k0 (antibody, human IgG1, kappa, also called Ho Ab K326_15Y) heavy: not shown light: DIVMTQSPLSLPVTPGEPASISCQASESLVHSNRNTYLHWYLQKPGQSPQLLIYKVSNRFSGVPDRFSGSGSGTDFTLKISRVEAEDVGVYYCSQNTHVPPTFGQGTKVEIERTVAAPSVFIFPPSDEQLKSGTASVVCLLNNFYPREAKVQWKVDNALQSGNSQESVTEQDSKDSTYSLSSTLTLSKADYEKHKVYACEVTHQGLSSPVTKSFNRGEC
120 % of control	GpH7-B3 variant K326_20W/GpL16-k0 (antibody, human IgG1, kappa, also called Ho Ab K326_20W) heavy: not shown light: DIVMTQSPLSLPVTPGEPASISCQASESLVHSNRNTYLHWYLQKPGQSPQLLIYKVSNRFSGVPDRFSGSGSGTDFTLKISRVEAEDVGVYYCSQNTHVPPTFGQGTKVEIERTVAAPSVFIFPPSDEQLKSGTASVVCLLNNFYPREAKVQWKVDNALQSGNSQESVTEQDSKDSTYSLSSTLTLSKADYEKHKVYACEVTHQGLSSPVTKSFNRGEC
106 % of control	GpH7-B3 variant K334_10E/GpL16-k0 (antibody, human IgG1, kappa, also called Ho Ab K334_10E) heavy: not shown light: DIVMTQSPLSLPVTPGEPASISCQASESLVHSNRNTYLHWYLQKPGQSPQLLIYKVSNRFSGVPDRFSGSGSGTDFTLKISRVEAEDVGVYYCSQNTHVPPTFGQGTKVEIERTVAAPSVFIFPPSDEQLKSGTASVVCLLNNFYPREAKVQWKVDNALQSGNSQESVTEQDSKDSTYSLSSTLTLSKADYEKHKVYACEVTHQGLSSPVTKSFNRGEC
106 % of control	GpH7-B3 variant K334_13S/GpL16-k0 (antibody, human IgG1, kappa, also called Ho Ab K334_13S) heavy: not shown light: DIVMTQSPLSLPVTPGEPASISCQASESLVHSNRNTYLHWYLQKPGQSPQLLIYKVSNRFSGVPDRFSGSGSGTDFTLKISRVEAEDVGVYYCSQNTHVPPTFGQGTKVEIERTVAAPSVFIFPPSDEQLKSGTASVVCLLNNFYPREAKVQWKVDNALQSGNSQESVTEQDSKDSTYSLSSTLTLSKADYEKHKVYACEVTHQGLSSPVTKSFNRGEC

The next lines start with the binder.

Binder	Ho/Con_2aR
GpH7-B3 variant I332_14T/GpL16-k0 (antibody, human IgG1, kappa, also called Ho Ab I332_14T) heavy: not shown light: DIVMTQSPLSLPVTPGEPASISCQASESLVHSNRNTYLHWYLQKPGQSPQLLIYKVSNRFSGVPDRFSGSGSGTDFTLKISRVEAEDVGVYYCSQNTHVPPTFGQGTKVEIERTVAAPSVFIFPPSDEQLKSGTASVVCLLNNFYPREAKVQWKVDNALQSGNSQESVTEQDSKDSTYSLSSTLTLSKADYEKHKVYACEVTHQGLSSPVTKSFNRGEC	99.6 % of control
GpH7-B3 variant K326_04F/GpL16-k0 (antibody, human IgG1, kappa, also called Ho Ab K326_04F) heavy: not shown light: DIVMTQSPLSLPVTPGEPASISCQASESLVHSNRNTYLHWYLQKPGQSPQLLIYKVSNRFSGVPDRFSGSGSGTDFTLKISRVEAEDVGVYYCSQNTHVPPTFGQGTKVEIERTVAAPSVFIFPPSDEQLKSGTASVVCLLNNFYPREAKVQWKVDNALQSGNSQESVTEQDSKDSTYSLSSTLTLSKADYEKHKVYACEVTHQGLSSPVTKSFNRGEC	133 % of control
GpH7-B3 variant K326_08L/GpL16-k0 (antibody, human IgG1, kappa, also called Ho Ab K326_08L) heavy: not shown light: DIVMTQSPLSLPVTPGEPASISCQASESLVHSNRNTYLHWYLQKPGQSPQLLIYKVSNRFSGVPDRFSGSGSGTDFTLKISRVEAEDVGVYYCSQNTHVPPTFGQGTKVEIERTVAAPSVFIFPPSDEQLKSGTASVVCLLNNFYPREAKVQWKVDNALQSGNSQESVTEQDSKDSTYSLSSTLTLSKADYEKHKVYACEVTHQGLSSPVTKSFNRGEC	131 % of control
GpH7-B3 variant K326_18N/GpL16-k0 (antibody, human IgG1, kappa, also called Ho Ab K326_18N) heavy: not shown light: DIVMTQSPLSLPVTPGEPASISCQASESLVHSNRNTYLHWYLQKPGQSPQLLIYKVSNRFSGVPDRFSGSGSGTDFTLKISRVEAEDVGVYYCSQNTHVPPTFGQGTKVEIERTVAAPSVFIFPPSDEQLKSGTASVVCLLNNFYPREAKVQWKVDNALQSGNSQESVTEQDSKDSTYSLSSTLTLSKADYEKHKVYACEVTHQGLSSPVTKSFNRGEC	113 % of control
GpH7-B3 variant K334_02A/GpL16-k0 (antibody, human IgG1, kappa, also called Ho Ab K334_02A) heavy: not shown light: DIVMTQSPLSLPVTPGEPASISCQASESLVHSNRNTYLHWYLQKPGQSPQLLIYKVSNRFSGVPDRFSGSGSGTDFTLKISRVEAEDVGVYYCSQNTHVPPTFGQGTKVEIERTVAAPSVFIFPPSDEQLKSGTASVVCLLNNFYPREAKVQWKVDNALQSGNSQESVTEQDSKDSTYSLSSTLTLSKADYEKHKVYACEVTHQGLSSPVTKSFNRGEC	100 % of control
GpH7-B3 variant K334_04F/GpL16-k0 (antibody, human IgG1, kappa, also called Ho Ab K334_04F) heavy: not shown light: DIVMTQSPLSLPVTPGEPASISCQASESLVHSNRNTYLHWYLQKPGQSPQLLIYKVSNRFSGVPDRFSGSGSGTDFTLKISRVEAEDVGVYYCSQNTHVPPTFGQGTKVEIERTVAAPSVFIFPPSDEQLKSGTASVVCLLNNFYPREAKVQWKVDNALQSGNSQESVTEQDSKDSTYSLSSTLTLSKADYEKHKVYACEVTHQGLSSPVTKSFNRGEC	110 % of control
GpH7-B3 variant K334_05P/GpL16-k0 (antibody, human IgG1, kappa, also called Ho Ab K334_05P) heavy: not shown light: DIVMTQSPLSLPVTPGEPASISCQASESLVHSNRNTYLHWYLQKPGQSPQLLIYKVSNRFSGVPDRFSGSGSGTDFTLKISRVEAEDVGVYYCSQNTHVPPTFGQGTKVEIERTVAAPSVFIFPPSDEQLKSGTASVVCLLNNFYPREAKVQWKVDNALQSGNSQESVTEQDSKDSTYSLSSTLTLSKADYEKHKVYACEVTHQGLSSPVTKSFNRGEC	102 % of control
GpH7-B3 variant K334_08L/GpL16-k0 (antibody, human IgG1, kappa, also called Ho Ab K334_08L) heavy: not shown light: DIVMTQSPLSLPVTPGEPASISCQASESLVHSNRNTYLHWYLQKPGQSPQLLIYKVSNRFSGVPDRFSGSGSGTDFTLKISRVEAEDVGVYYCSQNTHVPPTFGQGTKVEIERTVAAPSVFIFPPSDEQLKSGTASVVCLLNNFYPREAKVQWKVDNALQSGNSQESVTEQDSKDSTYSLSSTLTLSKADYEKHKVYACEVTHQGLSSPVTKSFNRGEC	105 % of control
GpH7-B3 variant K334_12R/GpL16-k0 (antibody, human IgG1, kappa, also called Ho Ab K334_12R) heavy: not shown light: DIVMTQSPLSLPVTPGEPASISCQASESLVHSNRNTYLHWYLQKPGQSPQLLIYKVSNRFSGVPDRFSGSGSGTDFTLKISRVEAEDVGVYYCSQNTHVPPTFGQGTKVEIERTVAAPSVFIFPPSDEQLKSGTASVVCLLNNFYPREAKVQWKVDNALQSGNSQESVTEQDSKDSTYSLSSTLTLSKADYEKHKVYACEVTHQGLSSPVTKSFNRGEC	110 % of control
GpH7-B3 variant K334_19Q/GpL16-k0 (antibody, human IgG1, kappa, also called Ho Ab K334_19Q) heavy: not shown light: DIVMTQSPLSLPVTPGEPASISCQASESLVHSNRNTYLHWYLQKPGQSPQLLIYKVSNRFSGVPDRFSGSGSGTDFTLKISRVEAEDVGVYYCSQNTHVPPTFGQGTKVEIERTVAAPSVFIFPPSDEQLKSGTASVVCLLNNFYPREAKVQWKVDNALQSGNSQESVTEQDSKDSTYSLSSTLTLSKADYEKHKVYACEVTHQGLSSPVTKSFNRGEC	108 % of control
GpH7-B3 variant K334_20W/GpL16-k0 (antibody, human IgG1, kappa, also called Ho Ab K334_20W) heavy: not shown light: DIVMTQSPLSLPVTPGEPASISCQASESLVHSNRNTYLHWYLQKPGQSPQLLIYKVSNRFSGVPDRFSGSGSGTDFTLKISRVEAEDVGVYYCSQNTHVPPTFGQGTKVEIERTVAAPSVFIFPPSDEQLKSGTASVVCLLNNFYPREAKVQWKVDNALQSGNSQESVTEQDSKDSTYSLSSTLTLSKADYEKHKVYACEVTHQGLSSPVTKSFNRGEC	96.4 % of control
GpH7-B3 variant L234_04F/GpL16-k0 (antibody, human IgG1, kappa, also called Ho Ab L234_04F) heavy: not shown light: DIVMTQSPLSLPVTPGEPASISCQASESLVHSNRNTYLHWYLQKPGQSPQLLIYKVSNRFSGVPDRFSGSGSGTDFTLKISRVEAEDVGVYYCSQNTHVPPTFGQGTKVEIERTVAAPSVFIFPPSDEQLKSGTASVVCLLNNFYPREAKVQWKVDNALQSGNSQESVTEQDSKDSTYSLSSTLTLSKADYEKHKVYACEVTHQGLSSPVTKSFNRGEC	43.3 % of control
